Reference: patent US20060241048A1

B1: Recombinant human CD59 (lacking the GPI anchor), with an amino-terminal methionine and a carboxy-terminal cysteine (APT2439) (protein)
chain: MLQCYNCPNPTADCKTAVNCSSDFDACLITKAGLQVYNKCWKFEHCNFNDVTTRLRENELTYYCCKKDLCNFNEQLENC
B2: APT3280, conjugate of APT2439 and APT3146 via a disulphide (protein, human)
chain: B1 chain
peptide: KSSKSPSKKDDKKPGDC
modifications: bisMyr at the N-terminal Lys; Cys (thiopyridylated before conjugation) disulphide-linked to CD59; carboxy-terminal Cys disulphide-linked to APT3146
B3: APT3073, conjugate of APT2439 and APT2258 via a disulphide (protein, human)
chain: B1 chain
peptide: GSSKSPSKKDDKKPGDC
modifications: N-terminal myristoyl (Myr-); C-terminal amide (-NH2); Cys (2-SPy before conjugation) disulphide-linked to CD59; carboxy-terminal Cys disulphide-linked to APT2258

What was measured:
[1] = biological target: bovine serum albumin (BSA) (bovine) (UniProt P02769); assay: cell-based or functional assay
[2] = biological target: C5b-8 and C5b-9 complexes (human); assay: cell-based or functional assay

Chain of UniProt P02769 (P02769 25-607 limits assumed): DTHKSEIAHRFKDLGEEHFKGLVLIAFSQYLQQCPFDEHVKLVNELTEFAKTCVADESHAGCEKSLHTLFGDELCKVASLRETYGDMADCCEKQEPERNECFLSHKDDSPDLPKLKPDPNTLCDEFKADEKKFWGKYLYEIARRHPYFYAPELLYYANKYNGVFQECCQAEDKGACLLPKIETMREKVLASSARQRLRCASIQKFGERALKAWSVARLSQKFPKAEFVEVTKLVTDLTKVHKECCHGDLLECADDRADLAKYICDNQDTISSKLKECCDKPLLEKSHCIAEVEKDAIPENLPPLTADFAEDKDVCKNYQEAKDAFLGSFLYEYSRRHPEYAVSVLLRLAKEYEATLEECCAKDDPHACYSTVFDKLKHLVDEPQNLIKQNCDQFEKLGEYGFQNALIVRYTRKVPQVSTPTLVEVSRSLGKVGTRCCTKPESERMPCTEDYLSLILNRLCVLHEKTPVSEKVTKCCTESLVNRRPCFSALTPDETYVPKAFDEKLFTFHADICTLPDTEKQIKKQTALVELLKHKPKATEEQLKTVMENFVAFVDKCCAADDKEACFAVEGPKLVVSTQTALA

| Molecule | IH50 (nM) of inhibition of haemolysis, Presence of Albumin (40 mg/ml) [absence of albumin: 0.26 at the 11th table, row 9, column 3] [1] | IH50 of inhibition of haemolysis, 4 mg/ml BSA [No BSA: 0.26 at the 13th table, row 8, column 3] [1] | IH50 of inhibition of haemolysis, 40 mg/ml BSA [No BSA: 0.26 at the 13th table, row 8, column 3] [1] | IH50 (nM), reactive lysis of guinea pig erythrocytes, Absence of HSA [2] | IH50 (nM), reactive lysis of guinea pig erythrocytes, Presence of HSA (2.7 mg/ml) [2] |
| --- | --- | --- | --- | --- | --- |
| APT070, [SCR1-3]-Cys-S-S-[MSWP-1] (from UniProt P17927 42-237) | 10 nM | – | – | – | – |
| APT070, [SCR1-3]-Cys-S-S-[MSWP-1] (from UniProt P17927 42-237) (other; unit assumed) | – | 1.3 nM | 10 nM | – | – |
| B1 | – | – | – | 600 nM | 400 nM |
| B2 | – | – | – | 0.1 nM | 0.08 nM |
| B3 | – | – | – | 0.8 nM | 6 nM |
